Patent US20150011567
Positions count from the first letter of the chain named. Names may count otherwise.

T1: biotinylated H4-derived unphosphorylated peptide TVTAMDVVYALKRQGRT
T1 chain: TVTAMDVVYALKRQGRT

B1: purified Ack1 (protein)
chain: MQPEEGTGWLLELLSEVQLQQYFLRLRDDLNVTRLSHFEYVKNEDLEKIGMGRPGQRRLWEAVKRRKALCKRKSWMSKVFSGKRLEAEFPPHHSQSTFRKTSPAPGGPAGEGPLQSLTCLIGEKDLRLLEKLGDGSFGVVRRGEWDAPSGKTVSVAVKCLKPDVLSQPEAMDDFIREVNAMHSLDHRNLIRLYGVVLTPPMKMVTELAPLGSLLDRLRKHQGHFLLGTLSRYAVQVAEGMGYLESKRFIHRDLAARNLLLATRDLVKIGDFGLMRALPQNDDHYVMQEHRKVPFAWCAPESLKTRTFSHASDTWMFGVTLWEMFTYGQEPWIGLNGSQILHKIDKEGERLPRPEDCPQDIYNVMVQCWAHKPEDRPTFVALRDFLLEAQPTDMRALQDFEEPDKLHIQMNDVITVIEGRAENYWWRGQNTRTLCVGPFPRNVVTSVAGLSAQDISQPLQNSFIHTGHGDSDPRHCWGFPDRIDELYLGNPMDPPDLLSVELSTSRPPQHLGGVKKPTYDPVSEDQDPLSSDFKRLGLRKPGLPRGLWLAKPSARVPGTKASRGSGAEVTLIDFGEEPVVPALRPCAPSLAQLAMDACSLLDETPPQSPTRALPRPLHPTPVVDWDARPLPPPPAYDDVAQDEDDFEICSINSTLVGAGVPAGPSQGQTNYAFVPEQARPPPPLEDNLFLPPQGGGKPPSSAQTAEIFQALQQECMRQLQAPAGSPAPSPSPGGDDKPQVPPRVPIPPRPTRPHVQLSPAPPGEEETSQWPGPASPPRVPPREPLSPQGSRTPSPLVPPGSSPLPPRLSSSPGKTMPTTQSFASDPKYATPQVIQAPGPRAGPCILPIVRDGKKVSSTHYYLLPERPSYLERYQRFLREAQSPEEPTPLPVPLLLPPPSTPAPAAPTATVRPMPQAALDPKANFSTNNSNPGARPPPPRATARLPQRGCPGDGPEAGRPADKIQMAMVHGVTTEECQAALQCHGWSVQRAAQYLKVEQLFGLGLRPRGECHKVLEMFDWNLEQAGCHLLGSWGPAHHKR
B2: purified constitutively active E346K-Ack1 (protein)
chain: B1 chain with E346K

What was measured:
[1] = target: T1, biotinylated H4-derived …
[2] = target: purified human H3 recombinant protein (NEB), P20929
[3] = target: purified human H4 recombinant protein (NEB), P62805

| Protein | in vitro kinase assay on plate-bound peptide, ELISA with pY88-H4 antibodies [1] | in vitro kinase reaction, immunoblot with pTyr99-H3 antibody [2] | in vitro kinase assay, immunoblot with pTyr51-H4 antibody [3] |
| --- | --- | --- | --- |
| B1 | Incubation of H4 peptide with WEE1 and Ack1 protein resulted in robust H4 Tyr88-phosphorylation | Ack1 directly phosphorylates histone H3 at Tyr99 |  |
| B2 |  |  | When purified E346K-Ack1 and H4 were incubated, H4 was Tyr51-phosphorylated |
